Holding throughout (experiment): cell-based or functional assay
The target in experiment [1] is Natriuretic Peptide Receptor-A (NPR-A) of MDCK cells (canine (endogenous in MDCK cells)).
For experiment [2], the target named is rat GC-A (rat) (UniProt P18910).
Experiment [3] deals with NPR-A of HeLa cells (UniProt P16066).
In experiment [4] the target is T1, NPR-C (rat) (UniProt P41740).
T1 sequence: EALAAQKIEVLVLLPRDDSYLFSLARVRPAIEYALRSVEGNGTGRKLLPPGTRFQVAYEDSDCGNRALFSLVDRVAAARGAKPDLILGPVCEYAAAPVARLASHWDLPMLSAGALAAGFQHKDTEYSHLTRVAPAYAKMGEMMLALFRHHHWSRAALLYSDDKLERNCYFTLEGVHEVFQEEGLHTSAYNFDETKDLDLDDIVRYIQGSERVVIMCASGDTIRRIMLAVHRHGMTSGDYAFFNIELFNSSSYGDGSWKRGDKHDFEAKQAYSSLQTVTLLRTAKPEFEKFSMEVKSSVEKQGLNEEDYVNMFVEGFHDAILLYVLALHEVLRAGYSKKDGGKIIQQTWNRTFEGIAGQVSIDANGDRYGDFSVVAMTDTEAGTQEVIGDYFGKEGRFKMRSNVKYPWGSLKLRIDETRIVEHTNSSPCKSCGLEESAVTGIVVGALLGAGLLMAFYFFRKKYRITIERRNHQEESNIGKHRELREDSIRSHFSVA

Experiment [5] has as its target T2, NPR-C (rat), P41740.
T2 chain: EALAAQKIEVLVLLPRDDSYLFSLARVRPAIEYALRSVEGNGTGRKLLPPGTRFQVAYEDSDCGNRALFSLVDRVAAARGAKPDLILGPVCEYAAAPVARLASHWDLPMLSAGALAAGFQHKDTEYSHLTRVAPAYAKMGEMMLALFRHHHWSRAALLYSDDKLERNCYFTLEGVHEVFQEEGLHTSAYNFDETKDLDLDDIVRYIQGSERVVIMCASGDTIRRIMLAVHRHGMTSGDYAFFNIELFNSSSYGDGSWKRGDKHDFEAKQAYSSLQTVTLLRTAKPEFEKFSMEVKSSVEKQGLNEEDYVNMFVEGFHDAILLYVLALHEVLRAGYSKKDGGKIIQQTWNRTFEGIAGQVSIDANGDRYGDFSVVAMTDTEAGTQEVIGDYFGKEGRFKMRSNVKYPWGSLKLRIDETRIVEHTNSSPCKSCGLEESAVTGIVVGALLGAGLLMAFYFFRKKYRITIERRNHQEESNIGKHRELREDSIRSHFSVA

In experiment [1], A7-TNPc (peptide) yielded a -Log10 EC50 (pEC50) of cGMP accumulation in MDCK cells of 6.87 and an EC50 of cGMP accumulation in MDCK cells of 161 nM. The mean relaxation of denuded aortic rings, % of KCl response (% of KCl response) in experiment [2] was found to be 32.9.

As for CHA10-TNPc (peptide), in experiment [1], the -Log10 EC50 (pEC50) of cGMP accumulation in MDCK cells worked out at 7.84 and the EC50 of cGMP accumulation in MDCK cells came to 14.4 nM. In experiment [2], this molecule registered a mean relaxation of denuded aortic rings, % of KCl response (% of KCl response) of 64.2.

With DNP (peptide), in experiment [3], the -Log10EC50 (pEC50) of cGMP accumulation in HeLa cells worked out at 9.42 and the EC50 of cGMP accumulation in HeLa cells was 0.392 nM. The same molecule yielded a relaxation of KCl pre-contracted endothelium-intact rat aortic rings in experiment [4] of 100%. In experiment [1], this molecule displayed a -Log10 EC50 (pEC50) of cGMP accumulation in MDCK cells of 8.08 and an EC50 of cGMP accumulation in MDCK cells of 1850 nM. The molecule further gave a relaxation of KCl pre-contracted endothelium-denuded rat aortic rings in experiment [2] of 100%.

In experiment [1], K7-TNPc (peptide) came in with a -Log10 EC50 (pEC50) of cGMP accumulation in MDCK cells of 7.44 and an EC50 of cGMP accumulation in MDCK cells of 52.8 nM. In experiment [2], this molecule registered a mean relaxation of denuded aortic rings, % of KCl response (% of KCl response) of 46.1 and a relaxation of denuded aortic rings of 50%.

In the case of Lebetin 2 isoform α (peptide), in experiment [1], the -Log10 EC50 (pEC50) of cGMP accumulation in MDCK cells was found to be 7.64 and the EC50 of cGMP accumulation in MDCK cells turned out to be 26.8 nM.

Turning to N7D-TNPc (peptide), in experiment [1], the -Log10 EC50 (pEC50) of cGMP accumulation in MDCK cells was 7.58 and the EC50 of cGMP accumulation in MDCK cells came out at 26.2 nM.

In experiment [1], Nle29-TNPc (peptide) returned a -Log10 EC50 (pEC50) of cGMP accumulation in MDCK cells of 6.5 and an EC50 of cGMP accumulation in MDCK cells of 399 nM. The same molecule displayed a mean relaxation of denuded aortic rings, % of KCl response (% of KCl response) in experiment [2] of 61.

In experiment [1], P28-TNPc (peptide) had a -Log10 EC50 (pEC50) of cGMP accumulation in MDCK cells of 6 and an EC50 of cGMP accumulation in MDCK cells of 1190 nM. Besides, in experiment [2], the mean relaxation of denuded aortic rings, % of KCl response (% of KCl response) came out at 52.6.

With PNP (peptide), in experiment [1], the -Log10 EC50 (pEC50) of cGMP accumulation in MDCK cells is 6.66 and the EC50 of cGMP accumulation in MDCK cells stood at 347 nM.

For R18-TNPc (peptide), in experiment [1], the -Log10 EC50 (pEC50) of cGMP accumulation in MDCK cells was found to be 6.78 and the EC50 of cGMP accumulation in MDCK cells was 700 nM. The same molecule registered a mean relaxation of denuded aortic rings, % of KCl response (% of KCl response) in experiment [2] of 0.5.

As to R32-TNPc (peptide), in experiment [1], the -Log10 EC50 (pEC50) of cGMP accumulation in MDCK cells amounted to 7.68 and the EC50 of cGMP accumulation in MDCK cells came to 99.1 nM. This molecule displayed a mean relaxation of denuded aortic rings, % of KCl response (% of KCl response) in experiment [2] of 66.4.

In the case of S6, A7-TNPc (peptide), in experiment [1], the -Log10 EC50 (pEC50) of cGMP accumulation in MDCK cells is 6.9 and the EC50 of cGMP accumulation in MDCK cells is 169 nM. Moreover, in experiment [2], the mean relaxation of denuded aortic rings, % of KCl response (% of KCl response) was 43.1.

As for S6, K7-TNPc (peptide), in experiment [1], the -Log10 EC50 (pEC50) of cGMP accumulation in MDCK cells worked out at 7.57 and the EC50 of cGMP accumulation in MDCK cells worked out at 52.4 nM. Moreover, the mean relaxation of denuded aortic rings, % of KCl response (% of KCl response) in experiment [2] came to 43.8.

In turn, hANP (peptide) returned a relaxation of KCl pre-contracted endothelium-intact rat aortic rings in experiment [4] of 100%. In addition, in experiment [1], the -Log10 EC50 (pEC50) of cGMP accumulation in MDCK cells amounted to 8.79 and the EC50 of cGMP accumulation in MDCK cells was 16.4 nM. In experiment [2], this molecule displayed a mean relaxation of denuded aortic rings, % of KCl response (% of KCl response) of 66.5 and a relaxation of KCl pre-contracted endothelium-denuded rat aortic rings of 100%.

In experiment [3], hBNP (peptide) gave a -Log10EC50 (pEC50) of cGMP accumulation in HeLa cells of 6.92 and an EC50 of cGMP accumulation in HeLa cells of 147 nM. In addition, in experiment [1], the -Log10 EC50 (pEC50) of cGMP accumulation in MDCK cells turned out to be 9.16 and the EC50 of cGMP accumulation in MDCK cells stood at 0.906 nM.

In experiment [1], “rANP (from UniProt P01161 123-150) (peptide)” gave a -Log10 EC50 (pEC50) of cGMP accumulation in MDCK cells of 8.76 and an EC50 of cGMP accumulation in MDCK cells of 8.47 nM.

SDSKIGDGCFGLPLDHIGSVSGLGCNRPVQNRPKK (modifications not checked) [TNPa]: in experiment [5], the relaxation of KCl pre-contracted endothelium-intact rat aortic rings was found to be 20%.

As for SDPKIGDGCFGLPLDHIGSVSGLGCNRPVQNRPKK (modifications not checked) [TNPb], the relaxation of KCl pre-contracted endothelium-intact rat aortic rings in experiment [5] turned out to be 20%.

These data come from patent US20120178668A1.
